Data published in publication PMC9482650, “Quantitative fragmentomics allow affinity mapping of interactomes” (Nature Communications, 2022).

T1: DFNB31_2, Q9P202
T1 sequence (Q9P202 274-371, limits assumed, looked up): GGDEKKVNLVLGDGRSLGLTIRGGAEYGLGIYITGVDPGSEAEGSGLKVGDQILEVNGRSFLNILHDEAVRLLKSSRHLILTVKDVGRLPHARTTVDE

T2: GRIP1_2, Q9Y3R0
T2 sequence (Q9Y3R0 145-248, limits assumed, looked up): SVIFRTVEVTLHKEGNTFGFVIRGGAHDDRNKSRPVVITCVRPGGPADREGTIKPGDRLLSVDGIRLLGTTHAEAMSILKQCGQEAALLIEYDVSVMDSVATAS

T3: RAPGEF6, Q8TEU7
T3 sequence (Q8TEU7 525-625, limits assumed, looked up): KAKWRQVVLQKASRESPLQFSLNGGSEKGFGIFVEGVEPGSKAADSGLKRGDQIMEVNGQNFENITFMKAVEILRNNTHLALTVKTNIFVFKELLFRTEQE

T4: MPP6, Q9NZW5
T4 sequence (Q9NZW5 125-219, limits assumed, looked up): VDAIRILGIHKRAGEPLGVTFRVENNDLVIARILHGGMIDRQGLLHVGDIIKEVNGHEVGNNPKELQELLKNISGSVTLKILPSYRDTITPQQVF

T5: GRIP1_7, Q9Y3R0
T5 sequence (Q9Y3R0 999-1096, limits assumed, looked up): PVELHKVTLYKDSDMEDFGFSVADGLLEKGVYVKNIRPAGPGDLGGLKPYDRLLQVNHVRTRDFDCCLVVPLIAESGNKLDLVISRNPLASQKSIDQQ

T6: LRRC7, Q96NW7
T6 sequence (Q96NW7 1440-1537, limits assumed, looked up): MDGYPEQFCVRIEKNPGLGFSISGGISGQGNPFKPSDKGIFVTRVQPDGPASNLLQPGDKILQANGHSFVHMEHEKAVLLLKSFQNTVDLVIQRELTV

T7: RADIL, Q96JH8
T7 sequence (Q96JH8 971-1071, limits assumed, looked up): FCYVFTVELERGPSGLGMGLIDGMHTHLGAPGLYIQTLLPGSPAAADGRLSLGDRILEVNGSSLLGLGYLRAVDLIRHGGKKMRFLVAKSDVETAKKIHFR

T8: MPDZ_5, O75970
T8 sequence (O75970 695-796, limits assumed, looked up): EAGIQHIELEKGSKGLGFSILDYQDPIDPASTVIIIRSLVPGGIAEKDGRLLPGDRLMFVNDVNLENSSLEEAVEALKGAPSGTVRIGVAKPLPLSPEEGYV

T9: MPDZ_10, O75970
T9 sequence (O75970 1624-1722, limits assumed, looked up): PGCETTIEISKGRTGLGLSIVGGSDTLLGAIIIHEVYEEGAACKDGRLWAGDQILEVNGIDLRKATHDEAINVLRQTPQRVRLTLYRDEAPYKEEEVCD

T10: MPP7, Q5T2T1
T10 sequence (Q5T2T1 134-230, limits assumed, looked up): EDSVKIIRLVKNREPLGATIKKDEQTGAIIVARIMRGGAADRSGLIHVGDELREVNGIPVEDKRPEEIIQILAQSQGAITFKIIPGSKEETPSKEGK

B1: EGLN1, Q9GZT9 (peptide)
chain: PSDSVGKDVF
B2: CD46, P15529 (peptide)
chain: THREVKFTSL
B3: SLC26A3, P40879 (peptide)
chain: VYEVPVETKF
B4: NRXN3, Q9HDB5 (peptide)
chain: QKNKDREYYV

Biological target: Inadl_4, Q8NI35
Experiment: holdup assay
Parameters: key: below the threshold = too weak to quantify, mostly under pKd 3.1 to 4
Conditions: plain residues with an end cap or a label only (N-terminal biotin on a linker: ado-ado)

Sequence of Inadl_4, Q8NI35 (Q8NI35 547-651): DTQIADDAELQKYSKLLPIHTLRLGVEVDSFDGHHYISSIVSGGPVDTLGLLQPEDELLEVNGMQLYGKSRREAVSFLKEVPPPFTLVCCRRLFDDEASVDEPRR

pKd | Binder
below the threshold | B1
below the threshold | B2
below the threshold | B3
below the threshold | B4

Biological target: DLG4_3, P78352
Experiment: holdup assay
Parameters: key: below the threshold = too weak to quantify, mostly under pKd 3.1 to 4
Conditions: plain residues with an end cap or a label only (N-terminal biotin on a linker: ado-ado)

Sequence of DLG4_3, P78352 (P78352 306-403): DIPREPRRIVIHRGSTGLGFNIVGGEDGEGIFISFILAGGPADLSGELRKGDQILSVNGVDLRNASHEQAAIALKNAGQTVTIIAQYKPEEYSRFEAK

pKd | Binder
below the threshold | B1
4.3 | B2
below the threshold | B3
below the threshold | B4

Biological target: GRIP2_6, Q9C0E4
Experiment: holdup assay
Parameters: key: below the threshold = too weak to quantify, mostly under pKd 3.1 to 4
Conditions: plain residues with an end cap or a label only (N-terminal biotin on a linker: ado-ado)

Sequence of GRIP2_6, Q9C0E4 (Q9C0E4 648-740): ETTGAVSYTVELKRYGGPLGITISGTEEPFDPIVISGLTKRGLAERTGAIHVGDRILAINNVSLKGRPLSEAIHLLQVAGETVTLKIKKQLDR

pKd | Binder
below the threshold | B1
3.98 | B2
below the threshold | B3
4.27 | B4

Biological target: HTRA2, O43464
Experiment: holdup assay
Parameters: key: below the threshold = too weak to quantify, mostly under pKd 3.1 to 4
Conditions: plain residues with an end cap or a label only (N-terminal biotin on a linker: ado-ado)

Sequence of HTRA2, O43464 (O43464 355-458): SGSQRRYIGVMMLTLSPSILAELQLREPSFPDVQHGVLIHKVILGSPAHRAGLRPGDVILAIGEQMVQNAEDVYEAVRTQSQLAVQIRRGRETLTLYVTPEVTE

pKd | Binder
below the threshold | B1
below the threshold | B2
below the threshold | B3
4.02 | B4

Biological target: PDZRN4_1, Q6ZMN7
Experiment: holdup assay
Parameters: key: below the threshold = too weak to quantify, mostly under pKd 3.1 to 4
Conditions: plain residues with an end cap or a label only (N-terminal biotin on a linker: ado-ado)

Sequence of PDZRN4_1, Q6ZMN7 (Q6ZMN7 213-318): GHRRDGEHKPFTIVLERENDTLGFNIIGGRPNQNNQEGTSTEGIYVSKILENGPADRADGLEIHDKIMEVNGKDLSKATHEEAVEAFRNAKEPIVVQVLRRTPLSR

pKd | Binder
below the threshold | B1
4.57 | B2
below the threshold | B3
below the threshold | B4

Biological target: Inadl_2, Q8NI35
Experiment: holdup assay
Parameters: key: below the threshold = too weak to quantify, mostly under pKd 3.1 to 4
Conditions: plain residues with an end cap or a label only (N-terminal biotin on a linker: ado-ado)

Sequence of Inadl_2, Q8NI35 (Q8NI35 238-335): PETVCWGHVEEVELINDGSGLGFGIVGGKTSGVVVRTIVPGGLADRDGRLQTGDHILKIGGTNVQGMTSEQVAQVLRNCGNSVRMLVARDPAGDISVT

pKd | Binder
below the threshold | B1
below the threshold | B2
below the threshold | B3
4.97 | B4

Biological target: NHERF4_1, Q86UT5-2
Experiment: holdup assay
Parameters: key: below the threshold = too weak to quantify, mostly under pKd 3.1 to 4
Conditions: plain residues with an end cap or a label only (N-terminal biotin on a linker: ado-ado)

Sequence of NHERF4_1, Q86UT5-2 (Q86UT5 other isoform, or with tags, fused parts or gaps): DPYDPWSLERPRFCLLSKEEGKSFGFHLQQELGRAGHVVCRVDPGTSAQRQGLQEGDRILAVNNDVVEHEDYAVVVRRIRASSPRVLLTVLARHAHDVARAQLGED

pKd | Binder
below the threshold | B1
4.28 | B2
3.67 | B3
below the threshold | B4

Biological target: T1, DFNB31_2, Q9P202
Experiment: holdup assay
Parameters: key: below the threshold = too weak to quantify, mostly under pKd 3.1 to 4
Conditions: plain residues with an end cap or a label only (N-terminal biotin on a linker: ado-ado)

pKd | Binder
below the threshold | B1
4.28 | B2
below the threshold | B3
below the threshold | B4

Biological target: T2, GRIP1_2, Q9Y3R0
Experiment: holdup assay
Parameters: key: below the threshold = too weak to quantify, mostly under pKd 3.1 to 4
Conditions: plain residues with an end cap or a label only (N-terminal biotin on a linker: ado-ado)

pKd | Binder
below the threshold | B1
below the threshold | B2
below the threshold | B3
below the threshold | B4

Biological target: FRMPD2_3, Q68DX3
Experiment: holdup assay
Parameters: key: below the threshold = too weak to quantify, mostly under pKd 3.1 to 4
Conditions: plain residues with an end cap or a label only (N-terminal biotin on a linker: ado-ado)

Sequence of FRMPD2_3, Q68DX3 (Q68DX3 1073-1166): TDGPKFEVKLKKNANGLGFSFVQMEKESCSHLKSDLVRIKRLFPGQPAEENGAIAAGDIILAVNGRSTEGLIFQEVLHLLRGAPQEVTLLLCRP

pKd | Binder
below the threshold | B1
below the threshold | B2
3.52 | B3
4.38 | B4

Biological target: T3, RAPGEF6, Q8TEU7
Experiment: holdup assay
Parameters: key: below the threshold = too weak to quantify, mostly under pKd 3.1 to 4
Conditions: plain residues with an end cap or a label only (N-terminal biotin on a linker: ado-ado)

pKd | Binder
below the threshold | B1
below the threshold | B2
below the threshold | B3
below the threshold | B4

Biological target: MAST1, Q9Y2H9
Experiment: holdup assay
Parameters: key: below the threshold = too weak to quantify, mostly under pKd 3.1 to 4
Conditions: plain residues with an end cap or a label only (N-terminal biotin on a linker: ado-ado)

Sequence of MAST1, Q9Y2H9 (Q9Y2H9 962-1065): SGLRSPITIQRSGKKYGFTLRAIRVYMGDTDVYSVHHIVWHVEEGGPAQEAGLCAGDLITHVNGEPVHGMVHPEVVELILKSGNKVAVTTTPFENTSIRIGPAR

pKd | Binder
below the threshold | B1
4.81 | B2
5.07 | B3
below the threshold | B4

Biological target: PTPN3, P26045
Experiment: holdup assay
Parameters: key: below the threshold = too weak to quantify, mostly under pKd 3.1 to 4
Conditions: plain residues with an end cap or a label only (N-terminal biotin on a linker: ado-ado)

Sequence of PTPN3, P26045 (P26045 505-587): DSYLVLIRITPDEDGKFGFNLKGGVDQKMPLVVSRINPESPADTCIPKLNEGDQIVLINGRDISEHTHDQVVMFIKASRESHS

pKd | Binder
below the threshold | B1
4.83 | B2
4.84 | B3
4.37 | B4

Biological target: CASK, O14936
Experiment: holdup assay
Parameters: key: below the threshold = too weak to quantify, mostly under pKd 3.1 to 4
Conditions: plain residues with an end cap or a label only (N-terminal biotin on a linker: ado-ado)

Sequence of CASK, O14936 (O14936 487-570): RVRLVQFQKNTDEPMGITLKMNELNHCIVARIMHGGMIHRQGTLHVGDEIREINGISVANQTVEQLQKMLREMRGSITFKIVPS

pKd | Binder
below the threshold | B1
below the threshold | B2
below the threshold | B3
3.55 | B4

Biological target: T4, MPP6, Q9NZW5
Experiment: holdup assay
Parameters: key: below the threshold = too weak to quantify, mostly under pKd 3.1 to 4
Conditions: plain residues with an end cap or a label only (N-terminal biotin on a linker: ado-ado)

pKd | Binder
below the threshold | B1
below the threshold | B2
below the threshold | B3
4.25 | B4

Biological target: LDB3, O75112
Experiment: holdup assay
Parameters: key: below the threshold = too weak to quantify, mostly under pKd 3.1 to 4
Conditions: plain residues with an end cap or a label only (N-terminal biotin on a linker: ado-ado)

Sequence of LDB3, O75112 (O75112 1-94): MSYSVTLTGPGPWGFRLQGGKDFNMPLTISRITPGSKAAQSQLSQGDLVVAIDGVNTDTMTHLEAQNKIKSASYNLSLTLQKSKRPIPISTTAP

pKd | Binder
below the threshold | B1
below the threshold | B2
3.55 | B3
below the threshold | B4

Biological target: GIPC2, Q8TF65
Experiment: holdup assay
Parameters: key: below the threshold = too weak to quantify, mostly under pKd 3.1 to 4
Conditions: plain residues with an end cap or a label only (N-terminal biotin on a linker: ado-ado)

Sequence of GIPC2, Q8TF65 (Q8TF65 112-203): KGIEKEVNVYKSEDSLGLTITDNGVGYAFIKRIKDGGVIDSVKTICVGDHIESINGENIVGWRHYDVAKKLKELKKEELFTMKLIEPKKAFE

pKd | Binder
below the threshold | B1
below the threshold | B2
3.53 | B3
3.52 | B4

Biological target: FRMPD4, Q14CM0
Experiment: holdup assay
Parameters: key: below the threshold = too weak to quantify, mostly under pKd 3.1 to 4
Conditions: plain residues with an end cap or a label only (N-terminal biotin on a linker: ado-ado)

Sequence of FRMPD4, Q14CM0 (Q14CM0 67-160): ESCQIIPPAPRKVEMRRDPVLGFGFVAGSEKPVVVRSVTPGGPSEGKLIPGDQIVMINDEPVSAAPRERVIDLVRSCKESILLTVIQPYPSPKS

pKd | Binder
below the threshold | B1
4.16 | B2
3.65 | B3
4.4 | B4

Biological target: T5, GRIP1_7, Q9Y3R0
Experiment: holdup assay
Parameters: key: below the threshold = too weak to quantify, mostly under pKd 3.1 to 4
Conditions: plain residues with an end cap or a label only (N-terminal biotin on a linker: ado-ado)

pKd | Binder
below the threshold | B1
below the threshold | B2
below the threshold | B3
4.62 | B4

Biological target: T6, LRRC7, Q96NW7
Experiment: holdup assay
Parameters: key: below the threshold = too weak to quantify, mostly under pKd 3.1 to 4
Conditions: plain residues with an end cap or a label only (N-terminal biotin on a linker: ado-ado)

pKd | Binder
below the threshold | B1
below the threshold | B2
below the threshold | B3
below the threshold | B4

Biological target: T7, RADIL, Q96JH8
Experiment: holdup assay
Parameters: key: below the threshold = too weak to quantify, mostly under pKd 3.1 to 4
Conditions: plain residues with an end cap or a label only (N-terminal biotin on a linker: ado-ado)

pKd | Binder
below the threshold | B1
3.49 | B2
below the threshold | B3
4.7 | B4

Biological target: IL16_1, Q14005
Experiment: holdup assay
Parameters: key: below the threshold = too weak to quantify, mostly under pKd 3.1 to 4
Conditions: plain residues with an end cap or a label only (N-terminal biotin on a linker: ado-ado)

Sequence of IL16_1, Q14005 (Q14005 210-306): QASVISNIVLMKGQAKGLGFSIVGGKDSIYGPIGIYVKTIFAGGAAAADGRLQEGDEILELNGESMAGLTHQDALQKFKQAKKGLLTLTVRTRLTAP

pKd | Binder
below the threshold | B1
below the threshold | B2
below the threshold | B3
3.72 | B4

Biological target: MAGI2_5, Q86UL8
Experiment: holdup assay
Parameters: key: below the threshold = too weak to quantify, mostly under pKd 3.1 to 4
Conditions: plain residues with an end cap or a label only (N-terminal biotin on a linker: ado-ado)

Sequence of MAGI2_5, Q86UL8 (Q86UL8 915-1017): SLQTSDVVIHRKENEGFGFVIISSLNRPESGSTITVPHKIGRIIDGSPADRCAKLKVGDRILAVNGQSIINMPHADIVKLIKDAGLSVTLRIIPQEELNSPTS

pKd | Binder
below the threshold | B1
3.84 | B2
3.71 | B3
below the threshold | B4

Biological target: T8, MPDZ_5, O75970
Experiment: holdup assay
Parameters: key: below the threshold = too weak to quantify, mostly under pKd 3.1 to 4
Conditions: plain residues with an end cap or a label only (N-terminal biotin on a linker: ado-ado)

pKd | Binder
below the threshold | B1
below the threshold | B2
below the threshold | B3
4.71 | B4

Biological target: MAGI3_2, Q5TCQ9
Experiment: holdup assay
Parameters: key: below the threshold = too weak to quantify, mostly under pKd 3.1 to 4
Conditions: plain residues with an end cap or a label only (N-terminal biotin on a linker: ado-ado)

Sequence of MAGI3_2, Q5TCQ9 (Q5TCQ9 398-503): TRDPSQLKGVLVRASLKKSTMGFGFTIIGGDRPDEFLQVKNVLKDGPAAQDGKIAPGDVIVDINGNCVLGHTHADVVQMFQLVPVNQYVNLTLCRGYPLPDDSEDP

pKd | Binder
below the threshold | B1
below the threshold | B2
below the threshold | B3
4.75 | B4

Biological target: MAGI2_3, Q86UL8
Experiment: holdup assay
Parameters: key: below the threshold = too weak to quantify, mostly under pKd 3.1 to 4
Conditions: plain residues with an end cap or a label only (N-terminal biotin on a linker: ado-ado)

Sequence of MAGI2_3, Q86UL8 (Q86UL8 600-682): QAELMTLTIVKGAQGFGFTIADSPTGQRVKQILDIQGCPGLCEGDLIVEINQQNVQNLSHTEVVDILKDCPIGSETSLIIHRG

pKd | Binder
below the threshold | B1
below the threshold | B2
below the threshold | B3
below the threshold | B4

Biological target: T9, MPDZ_10, O75970
Experiment: holdup assay
Parameters: key: below the threshold = too weak to quantify, mostly under pKd 3.1 to 4
Conditions: plain residues with an end cap or a label only (N-terminal biotin on a linker: ado-ado)

pKd | Binder
below the threshold | B1
below the threshold | B2
below the threshold | B3
below the threshold | B4

Biological target: T10, MPP7, Q5T2T1
Experiment: holdup assay
Parameters: key: below the threshold = too weak to quantify, mostly under pKd 3.1 to 4
Conditions: plain residues with an end cap or a label only (N-terminal biotin on a linker: ado-ado)

pKd | Binder
below the threshold | B1
below the threshold | B2
below the threshold | B3
4.92 | B4
